Data reported in patent publication US20250333506A1 (NEW YORK UNIVERSITY, published 2025).
Positions count from the first letter of the chain named. Where two headings read alike, the source gives them in different places.

Key:
[1] = biological target: T1, cynomolgus Gamma/Delta1A TCR-Fc fusion protein (cynomolgus monkey, biotinylated in vitro with recombinant BirA (AviTag)); assay: bead binding assay: biotinylated TCR-Fc on streptavidin beads, IgG titrated, flow cytometry
T1 construct: First chain = delta, second = gamma; also called Cyno D1; cyno D1; not shown: Fc portion of mouse IgG, then AviTag and His6 tag at the C-terminus; Fc portion of mouse IgG

Human D1A/G8 = biological target: T2, Human D1A/G8 (biotinylated (AviTag)); assay: as above
T2 construct: may be the same protein as m34; also called human Delta1A / Gamma8 TCR-Fc fusion protein
T2 sequence (delta chain, as listed by the source, chain 1 of 2): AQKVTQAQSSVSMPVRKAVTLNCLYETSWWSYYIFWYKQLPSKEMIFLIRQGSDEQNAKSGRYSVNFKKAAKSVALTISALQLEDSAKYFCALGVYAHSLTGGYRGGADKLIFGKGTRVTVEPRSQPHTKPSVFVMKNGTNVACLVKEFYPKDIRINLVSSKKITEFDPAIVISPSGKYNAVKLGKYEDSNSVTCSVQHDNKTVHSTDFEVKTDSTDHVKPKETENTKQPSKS
T2 sequence (gamma chain, as listed by the source, chain 2 of 2): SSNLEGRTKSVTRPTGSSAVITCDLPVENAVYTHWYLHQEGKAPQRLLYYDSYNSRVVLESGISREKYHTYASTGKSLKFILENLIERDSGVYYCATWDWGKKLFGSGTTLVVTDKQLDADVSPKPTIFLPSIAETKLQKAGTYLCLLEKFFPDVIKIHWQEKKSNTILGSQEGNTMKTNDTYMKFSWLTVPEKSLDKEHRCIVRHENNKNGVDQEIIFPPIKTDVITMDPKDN

Human D1A/G3 = biological target: T3, Human D1A/G3 (biotinylated (AviTag)); assay: as above
T3 construct: also called human Delta1A / Gamma3 TCR-Fc fusion protein
T3 sequence (delta chain, as listed by the source, chain 1 of 2): as the sequence (delta chain, as listed by the source, chain 1 of 2) above
T3 sequence (gamma chain, as listed by the source, chain 2 of 2): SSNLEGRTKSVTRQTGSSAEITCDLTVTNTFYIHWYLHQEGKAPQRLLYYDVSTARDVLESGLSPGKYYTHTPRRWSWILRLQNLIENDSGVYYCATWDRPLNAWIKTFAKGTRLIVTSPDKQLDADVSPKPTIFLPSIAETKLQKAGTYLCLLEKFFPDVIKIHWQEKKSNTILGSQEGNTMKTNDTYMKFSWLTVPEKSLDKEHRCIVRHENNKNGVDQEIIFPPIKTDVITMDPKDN

Cyno D2 [2] = biological target: T4, Cyno D2 (biotinylated (AviTag)); assay: as above
T4 construct: also called cynomolgus Gamma/Delta2; Cyno D2/G
T4 delta chain: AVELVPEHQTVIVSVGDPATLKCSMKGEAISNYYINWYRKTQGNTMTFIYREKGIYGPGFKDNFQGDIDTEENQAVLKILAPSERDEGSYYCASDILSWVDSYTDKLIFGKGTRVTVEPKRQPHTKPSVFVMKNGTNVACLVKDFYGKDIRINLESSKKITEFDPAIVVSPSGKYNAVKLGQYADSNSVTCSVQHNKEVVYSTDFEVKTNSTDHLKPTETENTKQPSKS
T4 gamma chain: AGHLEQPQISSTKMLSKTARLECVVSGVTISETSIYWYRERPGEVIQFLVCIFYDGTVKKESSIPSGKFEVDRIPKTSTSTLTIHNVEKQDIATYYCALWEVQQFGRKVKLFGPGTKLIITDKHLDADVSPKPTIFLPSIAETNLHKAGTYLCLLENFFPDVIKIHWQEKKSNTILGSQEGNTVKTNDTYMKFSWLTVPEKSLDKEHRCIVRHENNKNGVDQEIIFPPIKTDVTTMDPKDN

[3] = biological target: T1, cynomolgus Gamma/Delta1A TCR-Fc fusion …; assay: bead binding assay (TCR-Fc on streptavidin beads, IgG titrated, flow cytometry); apparent KD, s.d. of triplicates
Cyno D2 [4] = biological target: T4, Cyno D2; assay: bead binding assay: biotinylated TCR-Fc on streptavidin beads, IgG titrated, flow cytometry
[5] = biological target: T1, cynomolgus Gamma/Delta1A TCR-Fc fusion …; assay: bead binding assay (TCR-Fc on streptavidin beads, IgG titrated, flow cytometry); apparent KD
Cyno D2 [6] = biological target: T4, Cyno D2; assay: bead binding assay: biotinylated TCR-Fc on streptavidin beads, IgG titrated, flow cytometry
Cyno D2 [7] = biological target: T4, Cyno D2; assay: as above
Cyno D2 [8] = biological target: T4, Cyno D2; assay: as above
Cyno D2 [9] = biological target: T4, Cyno D2; assay: as above
Cyno D2 [10] = biological target: T4, Cyno D2; assay: as above
[11] = biological target: T5, cell surface-expressed δ1-γ8 TCR on J.RT3-T3.5 Jurkat cells; assay: flow cytometry titration on the D1/G8 TCR Cell Line (9-2 Hi), transduced J.RT3-T3.5 Jurkat cells
T5 construct: whole, on cells; also called Delta1 and gamma 8

[12] = biological target: T6, human Delta1 TCR (Fc fusion protein, Delta1 clone and gamma chain not stated); assay: bead binding titration, flow cytometry (MFI against antibody concentration)
T6 construct: also called Human Delta1 Fc fusion protein; human delta-1 chain

[13] = biological target: T1, cynomolgus Gamma/Delta1A TCR-Fc fusion …; assay: bead binding assay: biotinylated TCR-Fc on streptavidin beads, IgG titrated, flow cytometry; remark: listed apart in the source
[14] = biological target: T7, cell surface-expressed δ1γ3 TCR on J.RT3-T3.5 Jurkat cells; assay: flow cytometry titration on the D1/G3 TCR Cell Line (16-3 Hi), transduced J.RT3-T3.5 Jurkat cells
T7 construct: whole, on cells; also called Delta1 and gamma 3

[15] = biological target: T8, cell surface-expressed δ1γ2 TCR on J.RT3-T3.5 Jurkat cells; assay: flow cytometry titration on the D1/G2 TCR Cell Line (9-10 Hi), transduced J.RT3-T3.5 Jurkat cells
T8 construct: whole, on cells; Cells were stained with anti-human reagents; species of the transduced chains is not restated; also called Delta1 and gamma 2

[16] = biological target: T9, cynomolgus monkey Delta1 Fc fusion protein (Delta1 clone not stated); assay: bio-layer interferometry (Octet), biotinylated receptor on streptavidin sensor tips, antibody in solution; KD Error 1.33e-012
T9 construct: also called monkey (cyno) delta-1 chain; monkey Delta1 receptors

[17] = biological target: T10, cell surface-expressed δ1-γ9 TCR on J.RT3-T3.5 Jurkat cells; assay: flow cytometry titration on the D1/G9 TCR Cell Line (JR2 Hi), transduced J.RT3-T3.5 Jurkat cells
T10 construct: whole, on cells; also called Delta1/Gamma9 TCR on the surface; delta1/gamma-9

[18] = biological target: T11, cell surface-expressed δ1-γ4 TCR on J.RT3-T3.5 Jurkat cells; assay: flow cytometry titration on the D1/G4 TCR Cell Line (DP10 Hi), transduced J.RT3-T3.5 Jurkat cells
T11 construct: whole, on cells; also called Delta1 and gamma 4; delta1/gamma-4

[19] = biological target: T6, human Delta1 TCR (Fc fusion protein, …); assay: bio-layer interferometry (Octet), biotinylated receptor on streptavidin sensor tips, antibody in solution; KD Error 1.14e-012
[20] = biological target: T1, cynomolgus Gamma/Delta1A TCR-Fc fusion …; assay: bead binding assay by the table's title (paragraph 456 gives the same value for Octet BLI, FIG. 22B); apparent KD; apparent KD, IgG format, bead binding assay; measured once
[21] = biological target: T12, cell surface-expressed δ1-γ5 TCR on J.RT3-T3.5 Jurkat cells; assay: flow cytometry titration on the D1/G5 TCR Cell Line (AB Hi), transduced J.RT3-T3.5 Jurkat cells
T12 construct: whole, on cells; also called Delta1 and gamma 5

Cyno D2 [22] = biological target: T4, Cyno D2; assay: bead binding assay: biotinylated TCR-Fc on streptavidin beads, IgG titrated, flow cytometry

B1: Delta1-23 (antibody, V domains shown)
VH: EVQLVESGGGLVQPGGSLRLSCAASGFTVSSSSIHWVRQAPGKGLEWVASIYSSSGYTYYADSVKGRFTISADTSKNTAYLQMNSLRAEDTAVYYCARDPGSYYWYYSGSAYEGYGLDYWGQGTLVTVSS
VL: DIQMTQSPSSLSASVGDRVTITCRASQSVSSAVAWYQQKPGKAPKLLIYAASSLQSGVPSRFSGSRSGTDFTLTISSLQPEDFATYYCQQQSKYPFLITFGQGTKVEIKR
notes: Tested in the human IgG format; also called anti-Delta1-23
For B1, the “EC50 (read off the curve)” value [1] was about 5 nM, the binding result (Human D1A/G8) was “binds” and the binding result (Human D1A/G3) was “binds”. For the same binder, the binding result (Cyno D2 [2]) was “no binding (tested: 100 nM)” and the Kd [3] was 1.3 nM.

B2: Delta1-18 (antibody, V domains shown)
VH: B1 VH
VL: B1 VL with Q91R, K93R, Y94V, P95Y, F96S, I98V
notes: Tested in the human IgG format
B2 was tested, and the binding result (Cyno D2 [4]) was “no binding (tested: 100 nM)” and the Kd [5] was 0.15 nM.

B3: Delta1-20 (antibody, V domains shown)
VH: B1 VH
VL: B1 VL with Q91Y, S92C, K93R, Y94K, P95S, F96S, I98F
notes: as for B2
For B3, the binding result (Cyno D2 [6]) was “no binding (tested: 100 nM)” and the Kd [5] was 0.34 nM.

B4: Delta1-21 (antibody, V domains shown)
VH: B1 VH
VL: B1 VL with S92Q, K93R, Y94T, P95S, F96Y
notes: as for B2
With B4 the binding result (Cyno D2 [7]) was “no binding (tested: 100 nM)” and the Kd [3] was 1.74 nM.

B5: Delta1-24 (antibody, V domains shown)
VH: B1 VH
VL: B1 VL with Q91S, S92N, K93R, Y94S, P95Y, F96P, L97P, I98L
notes: as for B2
B5 was tested, and the binding result (Cyno D2 [8]) was “no binding (tested: 100 nM)” and the Kd [5] was 1.16 nM.

B6: Delta1-25 (antibody, V domains shown)
VH: B1 VH
VL: B1 VL with Q91I, S92G, K93R, Y94R, P95S, F96S
notes: as for B2
In the case of B6, the binding result (Cyno D2 [9]) is reported as “no binding (tested: 100 nM)” and the Kd [3] is reported as 0.48 nM.

B7: Delta1-26 (antibody, V domains shown)
VH: B1 VH
VL: B1 VL with S92Q, K93R, P95S, F96Y
notes: as for B2
For B7, the binding result (Cyno D2 [10]) was “no binding (tested: 100 nM)” and the Kd [3] was 0.26 nM.

B8: Delta1-39 (antibody, V domains shown)
VH: B1 VH with V29F, S30T, S31A, S32N, S33D
VL: B1 VL
notes: Tested in the human IgG format; also called anti-Delta1-39; Delta-39
B8 was tested, and the “EC50 (read off the curve)” value [11] was about 6 nM, the “EC50 (read off the curve)” value [12] was about 1 nM and the “EC50 (read off the curve)” value [13] was about 2 nM. The “EC50 (read off the curve)” value [14] was about 6 nM, the “EC50 (read off the curve)” value [15] was about 7 nM and the Kd [16] was 0.285 nM. For the same binder, the “EC50 (read off the curve)” value [17] was about 10 nM, the “EC50 (read off the curve)” value [18] was about 9 nM and the Kd [19] was 0.231 nM. For the same binder, the Kd [20] was 0.28 nM and the “EC50 (read off the curve)” value [21] was about 4 nM.

B9: Delta1-22 (antibody, V domains shown)
VH: B1 VH
VL: B1 VL with Q91R, K93R, P95Y, F96S
notes: as for B2
With B9 the binding result (Cyno D2 [22]) was “no binding (tested: 100 nM)” and the Kd [3] was 0.61 nM.
